From paper PMC11162790

Tested on: ArsR-P (phosphorylated His6-ArsR) (Helicobacter pylori SMI109)
Assay: EMSA
Details: Buffer F: 50 mM Tris-acetate pH 7.5, 100 mM K-glutamate, 20 mM Mg-acetate, 5% glycerol, 0.1 ug poly dI-dC, 25 C, 30 min; EMSA 5-7 nM DNA, footprint 25 nM DNA

PsabA SMI109 (T13, wt) 407 bp
K half: 1350 nM
